These results are taken from patent publication US20080311134A1 (published 2008).

This assay has as its target T1, MUC16 polypeptide, endogenous, on OVCAR-3 cells (human, UniProt Q8WXI7 1-14507).
T1 construct: whole, on cells; Highly polymorphic repeat protein; also called CA125; O772P
Put plainly: flow cytometry on OVCAR-3 cells, 25-400 ng/mL, anti-human Fc secondary antibody. A general note: Flow cytometry measures light scatter and fluorescence of single cells or particles in a stream.

Procedure: Bound antibody was detected using a fluorescent anti-human Fc secondary antibody.
Antibodies were applied at 25, 50, 100, 200, and 400 ng/mL in PBS+1% FBS+2 mM EDTA. After this incubation, cells were washed and then incubated with phycoerythrein-labeled goat anti-human Fc secondary antibody (one hour on ice). Cells were then washed and analyzed by flow cytometry. […] Even the lowest antibody concentration tested (25 ng or approximately 1×10¹¹ antibodies) provides a molar excess of antibodies over binding sites. Therefore, the concentration at which binding is reduced (as detected by flow cytometry) reflect the affinity of the antibody for MUC16.

B1: A117C thio hu anti-MUC16 3A5 humanized variant (antibody, human IgG1, kappa, V domains shown)
VH: EVQLVESGGGLVQPGGSLRLSCAASGYSITNDYAWNWVRQAPGKGLEWVGYISYSGYTTYNPSLKSRFTISRDTSKNTLYLQMNSLRAEDTAVYYCARWTSGLDYWGQGTLVTVSS
VL: DIQMTQSPSSLSASVGDRVTITCKASDLIHNWLAWYQQKPGKAPKLLIYGATSLETGVPSRFSGSGSGTDFTLTISSLQPEDFATYYCQQYWTTPFTFGQGTKVEIKR
notes: Full-length IgG expressed in CHO cells; Kabat 114, Eu 118; also called thio hu anti-MUC16 HC A117C 3A5; A117C thio hu 3A5
As to B1, the binding result is reported as “binds”.
